Laboratory results as given in US20230340054A1 (published 2023).

Experiments:
[1] = target: F906-(G2S1)4-IL2-(G2S1)6-HLE (IL2wt); assay: BLI
[2] = target: F906-(G2S1)4-IL2(E62A)-(G2S1)6-HLE (IL-2mut); assay: BLI

- Kd [1]: ~40 nM
- Kd [2]: ~40 nM
B1: CD122 (receptor)
chain: AVNGTSQFTCFYNSRANISCVWSQDGALQDTSCQVHAWPDRRRWNQTCELLPVSQASWACNLILGAPDSQKLTTVDIVTLRVLCREGVRWRVMAIQDFKPFENLRLMAPISLQVVHVETHRCNISWEISQASHYFERHLEFEARTLSPGHTWEEAPLLTLKQKQEWICLETLTPDTQYEFQVRVKPLQGEFTTWSPWSQPLAFRTKPAALGKD
modifications: biotinylated (site not stated)
